Experimental data as given in patent US20200299380A1 (published 2020).
Where a chain is given by its changes, count along the chain named.

B1: CHG1-M-MIA-20C6 (antibody, V domains shown)
VH: QITLKESGPGILKPSQTLSLTCSFSGFSLSTSGMGVGWIRQPSGKGLEWLAHIWWDDDKYYNPSLKSQLTISKDTSRNQVFLRITSVDTADTATYYCARRTQGYFDYWGQGTTLTVSS
VL: DIVMTQSPATLSVTPGDRVSLSCRASQSISDYLHWYQQKSHESPRLLIKYASQSISGIPSRFSGSGSGSDFTLSINSVEPEDVGVYYCQNGHSFPWTFGGGTKLEIKR
notes: also called chimeric anti-MICA 20C6
B2: CHG1-M-MIA-16A8 (antibody, V domains shown)
VH: EVQLVESGGGLVKPGGSLKLSCAASGFTFSRYAMSWVRQTPEKRLEWVATIFSGGSYTYYPDSVKGRFTISRDNANNTLYLQMSSLKAEDTAMYFCARPNWERTFDYWGQGTTLTVSS
VL: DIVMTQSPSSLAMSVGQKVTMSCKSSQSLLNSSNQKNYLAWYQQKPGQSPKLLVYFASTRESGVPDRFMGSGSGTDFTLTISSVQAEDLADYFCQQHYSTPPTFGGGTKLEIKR
notes: also called CHG1-M-MIA2-16A8; chimeric anti-MICA 16A8
B3: CHG1-M-MIA-6E4 (antibody, V domains shown)
VH: EVQLVESGGALVKPGGSLKLSCAASGFTFSYYAMSWVRQTPEKRLEWVATISRGGNYIYYTDSVKGRFTISRDNAKNTLYLQMTSLRSEDTAMFYCASISDYDGAWLAYWGQGTTLTVSS
VL: DVLMTQTPLSLPVSLGDQASISCRSSQSIIHTNGNTYLEWYLQKPGQSPKLLIYKISNRFSGVPDRFSGSGSGTDFTLKISRVEAEDLGVYYCFQGSHVPWTFGGGTKLEIKR
notes: also called chimeric anti-MICA 6E4

Columns and labels:
[1] = molecular target: T1, MICA*007 expressed at the cell surface (human, UniProt Q29983 24-297); experiment: flow cytometry on C1R transfectant cells, 4-parameter logistic fit
T1 construct: also called C1R-MICA*007; C1R-MICA*07
T1 chain: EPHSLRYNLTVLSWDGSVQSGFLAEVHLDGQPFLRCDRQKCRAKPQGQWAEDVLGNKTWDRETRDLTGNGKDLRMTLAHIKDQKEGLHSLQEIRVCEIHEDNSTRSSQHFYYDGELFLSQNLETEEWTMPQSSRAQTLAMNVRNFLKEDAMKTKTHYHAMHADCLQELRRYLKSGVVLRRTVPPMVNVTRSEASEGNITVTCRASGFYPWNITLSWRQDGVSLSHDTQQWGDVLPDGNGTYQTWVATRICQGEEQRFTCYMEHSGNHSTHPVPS

[2] = molecular target: T2, MICA*008 expressed at the cell surface (human, UniProt Q29983 24-297); experiment: as above
T2 construct: also called C1R-MICA*008; C1R-MICA*08
T2 chain: T1 chain with C36Y, M129V, K173E, G206S, W210R, T213I, S215T, Q251R

[3] = molecular target: T3, human ULBP-3-Fc (R&D systems) (human, UniProt Q9BZM4 30-217, limits assumed); experiment: SPR, antibody injected over immobilized ULBP-3-Fc
T3 construct: Bought; not shown: Fc of the bought fusion protein
T3 sequence (looked up): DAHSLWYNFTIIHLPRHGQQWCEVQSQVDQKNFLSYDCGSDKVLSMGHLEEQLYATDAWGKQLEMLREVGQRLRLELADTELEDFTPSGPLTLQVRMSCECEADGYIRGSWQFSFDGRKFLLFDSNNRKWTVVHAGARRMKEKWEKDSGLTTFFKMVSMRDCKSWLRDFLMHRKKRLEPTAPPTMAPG
Method: (§1) For cross-binding study, the human ULBP-1-Fc (R&D systems*), MICB-Fc (*), ULBP-2-Fc (*) and ULBP-3-Fc (*) recombinant proteins were covalently immobilized respectively on the flow cell one to four of a CM5 sensorchip. Anti-MICA antibodies (at a constant concentration of 10 μg/ml) were injected for 2 minutes at a flow rate of 10 μl/min onto the four flow cells in parallel. After each cycle, Sensorchip was regenerated by a five second injection of appropriate regeneration buffer.

[4] = molecular target: T4, MICA*001 expressed at the cell surface (human, UniProt Q29983 24-297); experiment: cell-based or functional assay
T4 sequence: T1 chain with A24T, E125K

[5] = molecular target: T5, MICB-Fc (R&D Systems 1599-MB) (human, UniProt Q29980 23-298, limits assumed); experiment: SPR, antibody injected over immobilized MICB-Fc
T5 construct: Bought; also called human MICB-Fc; not shown: Fc of the bought fusion protein
T5 sequence: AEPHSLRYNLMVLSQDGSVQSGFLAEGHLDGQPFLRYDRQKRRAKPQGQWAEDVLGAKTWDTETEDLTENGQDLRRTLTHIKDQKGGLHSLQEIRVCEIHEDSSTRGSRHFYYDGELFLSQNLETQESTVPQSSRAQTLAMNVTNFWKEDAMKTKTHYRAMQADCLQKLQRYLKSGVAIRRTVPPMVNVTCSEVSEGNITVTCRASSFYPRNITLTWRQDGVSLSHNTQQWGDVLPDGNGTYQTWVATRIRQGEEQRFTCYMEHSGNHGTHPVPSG
Method: as §1

[6] = molecular target: T5, MICB-Fc (R&D Systems 1599-MB); experiment: SPR, antibody at 10 µg/ml injected over immobilized MICB-Fc
Method: as §1

[7] = molecular target: T2, MICA*008 expressed at the cell surface; experiment: flow cytometry on C1R transfectant cells
Method: The binding of antibodies obtained from the first, second and third immunization series (including CHG1-M-MIA-19E9, CHG1-M-MIA-9C10, CHG1-M-MIA-6E4, CHG1-M-MIA-20C6, CHG1-M-MIA-16A8, CHG1-M-MIA-12A10, CHG1-M-MIA-10A7, CHG1-M-MIA-18E8, CHG1-M-MIA-10F3, CHG1-M-MIA-15F9 and CHG1-M-MIA-14B4) were tested for binding to MICA-expressing CR1 transfectant cells C1R-MICA*001, C1R-MICA*004, C1R-MICA*007 and C1R-MICA*008 (Pr. A. Steinle, Eberhard-Karls University Tuebingen, Germany) described in Salih et al. (2003) Blood 102(4): […]. Binding was analyzed by flow cytometry.
Cells were harvested and stained in PBS 1×/BSA 0.2%/EDTA 2 mM buffer during 30 minutes at 4° C. using a dose-range of the anti-MICA mAbs. After two washes in staining buffer, cells were stained for 30 min at 4° C. with mouse anti-human IgG1-PE monoclonal antibodies (1/11). After two washes, stainings were acquired on a BD FACS Canto II and analyzed using the FlowJo software.

| Binder | EC50 [1] [µg/mL] | EC50 [2] [µg/mL] | binding result [3] | CDC: EC50 of the increase in dead (7-AAD positive) Raji-MICA*01 cells with human complement [4] [µg/mL] | binding result [5] | binding result [6] | binding result [7] |
| --- | --- | --- | --- | --- | --- | --- | --- |
| B1 | 0.4 | 0.13 | no binding (tested: 10 µg/ml) | 0.97 | no binding (tested: 10 µg/ml) |  |  |
| B2 |  |  | no binding (tested: 10 µg/ml) |  |  | binds |  |
| B3 | 1.23 |  | no binding (tested: 10 µg/ml) | 1.01 |  | binds | binds |
